Measurements reported in the supplement of paper PMC9112550, “Optimization of the antimicrobial peptide Bac7 by deep mutational scanning” (BMC Biology, 2022).

Test system: Escherichia coli TOP10
Assay: shrunken log2 fold change of peptide-encoding DNA abundance (4.5 h post-induction vs induction); higher = less antimicrobial activity (less host growth inhibition)
Settings: time post-induction: 4.5 h; library: site-saturation at positions 5, 18, 19, 20
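Note: peptides expressed intracellularly from a pBAD plasmid library in pooled LB shake-flask culture, induced with 0.3% L-arabinose, DNA abundance read by NGS, three biological replicates, DESeq2 with apeglm shrinkage.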

Row | Sequence | shrunken log2 fold change
1 | RRIRVRPPRLPRPRPRPEQCPRP | 0.171
2 | RRIRVRPPRLPRPRPRPEQKPRP | -0.0196
3 | RRIRVRPPRLPRPRPRPEQPPRP | 0.515
4 | RRIRVRPPRLPRPRPRPERFPRP | -0.023
5 | RRIRVRPPRLPRPRPRPERKPRP | 0.111
6 | RRIRVRPPRLPRPRPRPERWPRP | 0.615
7 | RRIRVRPPRLPRPRPRPESFPRP | -0.0103
8 | RRIRVRPPRLPRPRPRPETGPRP | 0.206
9 | RRIRVRPPRLPRPRPRPEWTPRP | 0.171
10 | RRIRVRPPRLPRPRPRPFAVPRP | -0.00738
11 | RRIRVRPPRLPRPRPRPFCDPRP | -0.218
12 | RRIRVRPPRLPRPRPRPFCQPRP | -0.203
13 | RRIRVRPPRLPRPRPRPFFVPRP | -0.0592
14 | RRIRVRPPRLPRPRPRPFHMPRP | -0.54
15 | RRIRVRPPRLPRPRPRPFIYPRP | -0.236
16 | RRIRVRPPRLPRPRPRPFKMPRP | -0.398
17 | RRIRVRPPRLPRPRPRPFLGPRP | -0.0486
18 | RRIRVRPPRLPRPRPRPFMGPRP | -0.334
19 | RRIRVRPPRLPRPRPRPFNCPRP | -0.0327
20 | RRIRVRPPRLPRPRPRPFPAPRP | -0.121
21 | RRIRVRPPRLPRPRPRPFPHPRP | -0.366
22 | RRIRVRPPRLPRPRPRPFPSPRP | -0.127
23 | RRIRVRPPRLPRPRPRPFPYPRP | -0.277
24 | RRIRVRPPRLPRPRPRPFQNPRP | 0.00707
25 | RRIRVRPPRLPRPRPRPFRWPRP | -0.0443

Row | Sequence | shrunken log2 fold change
26 | RRIRVRPPRLPRPRPRPFTFPRP | -0.0282
27 | RRIRVRPPRLPRPRPRPFTGPRP | -0.115
28 | RRIRVRPPRLPRPRPRPFVPPRP | -0.0478
29 | RRIRVRPPRLPRPRPRPGDPPRP | 0.172
30 | RRIRVRPPRLPRPRPRPGEFPRP | 0.119
31 | RRIRVRPPRLPRPRPRPGGIPRP | 0.143
32 | RRIRVRPPRLPRPRPRPGHGPRP | 0.00601
33 | RRIRVRPPRLPRPRPRPGICPRP | -0.0598
34 | RRIRVRPPRLPRPRPRPGMQPRP | 0.116
35 | RRIRVRPPRLPRPRPRPGNCPRP | 0.0986
36 | RRIRVRPPRLPRPRPRPGNVPRP | -0.393
37 | RRIRVRPPRLPRPRPRPGPGPRP | 0.298
38 | RRIRVRPPRLPRPRPRPGQHPRP | 0.0795
39 | RRIRVRPPRLPRPRPRPGREPRP | -0.00937
40 | RRIRVRPPRLPRPRPRPGSCPRP | 0.216
41 | RRIRVRPPRLPRPRPRPGSTPRP | -0.311
42 | RRIRVRPPRLPRPRPRPGTIPRP | -0.0277
43 | RRIRVRPPRLPRPRPRPGTKPRP | 0.193
44 | RRIRVRPPRLPRPRPRPGTWPRP | -0.0352
45 | RRIRVRPPRLPRPRPRPGVCPRP | 0.186
46 | RRIRVRPPRLPRPRPRPGVPPRP | 0.0752
47 | RRIRVRPPRLPRPRPRPGVSPRP | -0.141
48 | RRIRVRPPRLPRPRPRPGWWPRP | 0.115
49 | RRIRVRPPRLPRPRPRPGWYPRP | 0.0128
50 | RRIRVRPPRLPRPRPRPGYGPRP | 0.0756

Row | Sequence | shrunken log2 fold change
51 | RRIRVRPPRLPRPRPRPGYPPRP | -0.343
52 | RRIRVRPPRLPRPRPRPHCRPRP | 0.199
53 | RRIRVRPPRLPRPRPRPHETPRP | -0.0244
54 | RRIRVRPPRLPRPRPRPHFTPRP | -0.253
55 | RRIRVRPPRLPRPRPRPHHRPRP | 3.34
56 | RRIRVRPPRLPRPRPRPHIAPRP | -0.235
57 | RRIRVRPPRLPRPRPRPHIDPRP | -0.15
58 | RRIRVRPPRLPRPRPRPHIKPRP | -0.389
59 | RRIRVRPPRLPRPRPRPHKLPRP | -0.317
60 | RRIRVRPPRLPRPRPRPHMKPRP | -0.483
61 | RRIRVRPPRLPRPRPRPHNFPRP | -0.418
62 | RRIRVRPPRLPRPRPRPHPMPRP | -0.15
63 | RRIRVRPPRLPRPRPRPHPSPRP | 0.168
64 | RRIRVRPPRLPRPRPRPHPVPRP | -0.201
65 | RRIRVRPPRLPRPRPRPHQKPRP | 0.375
66 | RRIRVRPPRLPRPRPRPHQVPRP | -0.111
67 | RRIRVRPPRLPRPRPRPHRMPRP | -0.457
68 | RRIRVRPPRLPRPRPRPHVEPRP | 0.0127
69 | RRIRVRPPRLPRPRPRPHYAPRP | -0.0814
70 | RRIRVRPPRLPRPRPRPHYKPRP | -0.389
71 | RRIRVRPPRLPRPRPRPIAKPRP | 0.391
72 | RRIRVRPPRLPRPRPRPIALPRP | -0.238
73 | RRIRVRPPRLPRPRPRPIAVPRP | 0.0926
74 | RRIRVRPPRLPRPRPRPICCPRP | -0.0831
75 | RRIRVRPPRLPRPRPRPICFPRP | 0.0059

Row | Sequence | shrunken log2 fold change
76 | RRIRVRPPRLPRPRPRPICSPRP | -0.154
77 | RRIRVRPPRLPRPRPRPICWPRP | 0.0488
78 | RRIRVRPPRLPRPRPRPIDAPRP | -0.206
79 | RRIRVRPPRLPRPRPRPIDTPRP | -0.48
80 | RRIRVRPPRLPRPRPRPIFLPRP | -0.157
81 | RRIRVRPPRLPRPRPRPIFYPRP | -0.378
82 | RRIRVRPPRLPRPRPRPIGGPRP | 0.801
83 | RRIRVRPPRLPRPRPRPIGHPRP | -0.426
84 | RRIRVRPPRLPRPRPRPIGLPRP | -0.0479
85 | RRIRVRPPRLPRPRPRPIHHPRP | -0.723
86 | RRIRVRPPRLPRPRPRPIKNPRP | -0.361
87 | RRIRVRPPRLPRPRPRPIKVPRP | -0.167
88 | RRIRVRPPRLPRPRPRPIMWPRP | 0.03
89 | RRIRVRPPRLPRPRPRPINPPRP | -0.327
90 | RRIRVRPPRLPRPRPRPIPGPRP | -0.0572
91 | RRIRVRPPRLPRPRPRPIQKPRP | -0.017
92 | RRIRVRPPRLPRPRPRPIQQPRP | 0.00847
93 | RRIRVRPPRLPRPRPRPISAPRP | 1.18
94 | RRIRVRPPRLPRPRPRPIVDPRP | -0.142
95 | RRIRVRPPRLPRPRPRPIVEPRP | -0.0668
96 | RRIRVRPPRLPRPRPRPIVPPRP | -0.349
97 | RRIRVRPPRLPRPRPRPIWFPRP | -0.0241
98 | RRIRVRPPRLPRPRPRPIWHPRP | -0.164
99 | RRIRVRPPRLPRPRPRPIWVPRP | 0.154
100 | RRIRVRPPRLPRPRPRPIYDPRP | -0.576

Row | Sequence | shrunken log2 fold change
101 | RRIRVRPPRLPRPRPRPIYWPRP | -0.0757
102 | RRIRVRPPRLPRPRPRPKAAPRP | 0.1
103 | RRIRVRPPRLPRPRPRPKAMPRP | 0.0194
104 | RRIRVRPPRLPRPRPRPKCDPRP | 0.0741
105 | RRIRVRPPRLPRPRPRPKCGPRP | 0.0731
106 | RRIRVRPPRLPRPRPRPKELPRP | -0.00952
107 | RRIRVRPPRLPRPRPRPKEQPRP | -0.0164
108 | RRIRVRPPRLPRPRPRPKERPRP | 0.0774
109 | RRIRVRPPRLPRPRPRPKFWPRP | 0.48
110 | RRIRVRPPRLPRPRPRPKGWPRP | 0.684
111 | RRIRVRPPRLPRPRPRPKHYPRP | -0.459
112 | RRIRVRPPRLPRPRPRPKICPRP | -0.0576
113 | RRIRVRPPRLPRPRPRPKKAPRP | 0.157
114 | RRIRVRPPRLPRPRPRPKKSPRP | 0.585
115 | RRIRVRPPRLPRPRPRPKMAPRP | -0.222
116 | RRIRVRPPRLPRPRPRPKMVPRP | -0.109
117 | RRIRVRPPRLPRPRPRPKNGPRP | -0.129
118 | RRIRVRPPRLPRPRPRPKNRPRP | 0.137
119 | RRIRVRPPRLPRPRPRPKNSPRP | -0.34
120 | RRIRVRPPRLPRPRPRPKPWPRP | 0.376
121 | RRIRVRPPRLPRPRPRPKQGPRP | 0.0222
122 | RRIRVRPPRLPRPRPRPKQTPRP | -0.0483
123 | RRIRVRPPRLPRPRPRPKRCPRP | -0.0118
124 | RRIRVRPPRLPRPRPRPKRDPRP | 0.292
125 | RRIRVRPPRLPRPRPRPKRIPRP | -0.114

Row | Sequence | shrunken log2 fold change
126 | RRIRVRPPRLPRPRPRPKRMPRP | 0.117
127 | RRIRVRPPRLPRPRPRPKRQPRP | 0.0464
128 | RRIRVRPPRLPRPRPRPKTIPRP | -0.26
129 | RRIRVRPPRLPRPRPRPKTRPRP | 0.63
130 | RRIRVRPPRLPRPRPRPLCNPRP | -0.139
131 | RRIRVRPPRLPRPRPRPLCTPRP | -0.0347
132 | RRIRVRPPRLPRPRPRPLDQPRP | 0.0826
133 | RRIRVRPPRLPRPRPRPLELPRP | -0.103
134 | RRIRVRPPRLPRPRPRPLFDPRP | -0.172
135 | RRIRVRPPRLPRPRPRPLFPPRP | 0.0958
136 | RRIRVRPPRLPRPRPRPLFRPRP | -0.134
137 | RRIRVRPPRLPRPRPRPLGAPRP | 0.352
138 | RRIRVRPPRLPRPRPRPLGDPRP | -0.125
139 | RRIRVRPPRLPRPRPRPLHDPRP | -0.41
140 | RRIRVRPPRLPRPRPRPLHMPRP | -0.17
141 | RRIRVRPPRLPRPRPRPLIWPRP | -0.0254
142 | RRIRVRPPRLPRPRPRPLIYPRP | -0.632
143 | RRIRVRPPRLPRPRPRPLKKPRP | 0.181
144 | RRIRVRPPRLPRPRPRPLMVPRP | -0.443
145 | RRIRVRPPRLPRPRPRPLNMPRP | -1.14
146 | RRIRVRPPRLPRPRPRPLNSPRP | -0.298
147 | RRIRVRPPRLPRPRPRPLNTPRP | -0.224
148 | RRIRVRPPRLPRPRPRPLPHPRP | 0.0915
149 | RRIRVRPPRLPRPRPRPLPIPRP | -0.398
150 | RRIRVRPPRLPRPRPRPLPPPRP | 0.418
